# Assay results taken from PMC10396304.
# How the values were obtained:
# [1] = biological target: AoLadC, LOV-activated diguanylate cyclase from Aquella oligotrophica (Aquella oligotrophica); test: SEC-MALS; Superdex 200 Increase 10/300 GL in storage buffer, 500-1000 ug protein, dark-adapted state (non-actinic light); miniDAWN MALS detector
# [2] = biological target: AoLadC, LOV-activated diguanylate cyclase from Aquella oligotrophica (Aquella oligotrophica); test: SEC-MALS; Superdex 200 Increase 10/300 GL in storage buffer, 500-1000 ug protein, illuminated state (blue light 465 nm for 1 min before loading and during the whole run); miniDAWN MALS detector
# [3] = biological target: DpLadC, LOV-activated diguanylate cyclase from Deinococcus peraridilitoris DSM 19664 (Deinococcus peraridilitoris DSM 19664); test: SEC-MALS; Superdex 200 Increase 10/300 GL in storage buffer, 500-1000 ug protein, dark-adapted state (non-actinic light); miniDAWN MALS detector
# [4] = biological target: DpLadC, LOV-activated diguanylate cyclase from Deinococcus peraridilitoris DSM 19664 (Deinococcus peraridilitoris DSM 19664); test: SEC-MALS; Superdex 200 Increase 10/300 GL in storage buffer, 500-1000 ug protein, illuminated state (blue light 465 nm for 1 min before loading and during the whole run); miniDAWN MALS detector
# [5] = biological target: MsLadC, LOV-activated diguanylate cyclase from Methylotenera sp. (Methylotenera sp.); test: SAXS; steady-state dark-adapted sample, BM29 ESRF, 20°C in the capillary, MsLadC 0.8 mg/ml, NT-AoLadC 0.9 mg/ml; molecular weight from Porod volume and volume of correlation
# [6] = biological target: MsLadC, LOV-activated diguanylate cyclase from Methylotenera sp. (Methylotenera sp.); test: SAXS; steady-state light-adapted sample (blue light 465 nm), BM29 ESRF, 20°C in the capillary, MsLadC 0.8 mg/ml, NT-AoLadC 0.9 mg/ml; molecular weight from Porod volume and volume of correlation
# [7] = biological target: MsLadC, LOV-activated diguanylate cyclase from Methylotenera sp. (Methylotenera sp.); test: SEC-MALS; Superdex 200 Increase 10/300 GL in storage buffer, 500-1000 ug protein, dark-adapted state (non-actinic light); miniDAWN MALS detector
# [8] = biological target: MsLadC, LOV-activated diguanylate cyclase from Methylotenera sp. (Methylotenera sp.); test: SEC-MALS; Superdex 200 Increase 10/300 GL in storage buffer, 500-1000 ug protein, illuminated state (blue light 465 nm for 1 min before loading and during the whole run); miniDAWN MALS detector
# [9] = biological target: SfLadC, LOV-activated diguanylate cyclase from Serratia fonticola AU-AP2C (Serratia fonticola AU-AP2C); test: SEC-MALS; Superdex 200 Increase 10/300 GL in storage buffer, 500-1000 ug protein, dark-adapted state (non-actinic light); miniDAWN MALS detector
# [10] = biological target: SfLadC, LOV-activated diguanylate cyclase from Serratia fonticola AU-AP2C (Serratia fonticola AU-AP2C); test: SEC-MALS; Superdex 200 Increase 10/300 GL in storage buffer, 500-1000 ug protein, illuminated state (blue light 465 nm for 1 min before loading and during the whole run); miniDAWN MALS detector
substance,measurement,setting,value
"AoLadC, LOV-activated diguanylate cyclase from Aquella oligotrophica (enzyme)",stoichiometry N,[1],2
same,stoichiometry N,[2],2
"DpLadC, LOV-activated diguanylate cyclase from Deinococcus peraridilitoris DSM 19664 (enzyme)",stoichiometry N,[3],2
same,stoichiometry N,[4],2
"MsLadC, LOV-activated diguanylate cyclase from Methylotenera sp. (enzyme)",stoichiometry N,[5],2
same,stoichiometry N,[6],2
same,stoichiometry N,[7],2
same,stoichiometry N,[8],2
"SfLadC, LOV-activated diguanylate cyclase from Serratia fonticola AU-AP2C (enzyme)",stoichiometry N,[9],2
same,stoichiometry N,[10],2
